T1: Full length GST-AL1 1-352 (tomato golden mosaic virus (TGMV), UniProt P03567 1-352)
T1 sequence: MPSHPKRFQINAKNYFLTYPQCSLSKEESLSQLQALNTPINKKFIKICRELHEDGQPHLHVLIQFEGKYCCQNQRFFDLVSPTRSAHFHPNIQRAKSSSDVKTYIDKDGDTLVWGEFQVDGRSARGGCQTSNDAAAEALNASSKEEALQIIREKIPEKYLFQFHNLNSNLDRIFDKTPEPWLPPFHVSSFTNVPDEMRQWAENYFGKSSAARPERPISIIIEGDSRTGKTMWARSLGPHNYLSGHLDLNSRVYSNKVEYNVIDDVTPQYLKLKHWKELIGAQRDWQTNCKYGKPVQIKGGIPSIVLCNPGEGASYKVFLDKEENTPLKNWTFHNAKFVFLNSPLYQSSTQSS

B1: AL1 FQ118 (Ala13) fused to the Gal4 activation domain (pNSB872) (other)
chain: T1 sequence with F117A, Q118A
B2: AL1 REK154 (Ala6) fused to the Gal4 activation domain (pNSB759) (other)
chain: T1 sequence with R152A, E153A, K154A
B3: AL1 Q-HN165 (Ala8) fused to the Gal4 activation domain (pNSB761) (other)
chain: T1 sequence with Q162A, H164A, N165A
B4: AL1 E--N140 + KEE146 (Ala4+5) fused to the Gal4 activation domain (pNSB757) (other)
chain: T1 sequence with E137A, N140A, K144A, E145A, E146A
B5: AL1 RS-R125 (Ala1) fused to the Gal4 activation domain (pNSB786) (other)
chain: T1 sequence with R122A, S123A, R125A
B6: AL1 D120 (Ala14) fused to the Gal4 activation domain (pNSB871) (other)
chain: T1 sequence with D120A
B7: AL1 N-DR172 (Ala9) fused to the Gal4 activation domain (pNSB762) (other)
chain: T1 sequence with N169A, D171A, R172A
B8: AL1 AAA136 (Leu) fused to the Gal4 activation domain (pNSB785) (other)
chain: T1 sequence with A134L, A135L, A136L
B9: AL1 EKY159 (Ala7) fused to the Gal4 activation domain (pNSB760) (other)
chain: T1 sequence with E157A, K158A, Y159A
B10: AL1 KEE146 (Ala5) fused to the Gal4 activation domain (pNSB894) (other)
chain: T1 sequence with K144A, E145A, E146A
B11: AL1 K144 fused to the Gal4 activation domain (pNSB916) (other)
chain: T1 sequence with K144A
B12: AL1 1-180 (other)
chain: MPSHPKRFQINAKNYFLTYPQCSLSKEESLSQLQALNTPINKKFIKICRELHEDGQPHLHVLIQFEGKYCCQNQRFFDLVSPTRSAHFHPNIQRAKSSSDVKTYIDKDGDTLVWGEFQVDGRSARGGCQTSNDAAAEALNASSKEEALQIIREKIPEKYLFQFHNLNSNLDRIFDKTPEP
B13: AL1 134-352 (other)
chain: AAAEALNASSKEEALQIIREKIPEKYLFQFHNLNSNLDRIFDKTPEPWLPPFHVSSFTNVPDEMRQWAENYFGKSSAARPERPISIIIEGDSRTGKTMWARSLGPHNYLSGHLDLNSRVYSNKVEYNVIDDVTPQYLKLKHWKELIGAQRDWQTNCKYGKPVQIKGGIPSIVLCNPGEGASYKVFLDKEENTPLKNWTFHNAKFVFLNSPLYQSSTQSS
B14: TGMV AL1, wild type, full length, untagged (other)
chain: T1 sequence
notes: also called Rep; authentic AL1
B15: AL1 KEE146 (Ala5), full length, untagged (other)
chain: T1 sequence with K144A, E145A, E146A
B16: AL1 N-DR172 (Ala9), full length, untagged (other)
chain: T1 sequence with N169A, D171A, R172A
B17: AL1 REK154 (Ala6), full length, untagged (other)
chain: T1 sequence with R152A, E153A, K154A
B18: AL1 E-N140 (Ala4), full length, untagged (other)
chain: T1 sequence with E137A, N140A
B19: AL1 Q-HN165 (Ala8), full length, untagged (other)
chain: T1 sequence with Q162A, H164A, N165A
B20: AL1 K-E179 (Ala10), full length, untagged (other)
chain: T1 sequence with K176A, E179A
B21: AL1 147-352 (other)
chain: ALQIIREKIPEKYLFQFHNLNSNLDRIFDKTPEPWLPPFHVSSFTNVPDEMRQWAENYFGKSSAARPERPISIIIEGDSRTGKTMWARSLGPHNYLSGHLDLNSRVYSNKVEYNVIDDVTPQYLKLKHWKELIGAQRDWQTNCKYGKPVQIKGGIPSIVLCNPGEGASYKVFLDKEENTPLKNWTFHNAKFVFLNSPLYQSSTQSS
B22: AL1 1-168 (other)
chain: MPSHPKRFQINAKNYFLTYPQCSLSKEESLSQLQALNTPINKKFIKICRELHEDGQPHLHVLIQFEGKYCCQNQRFFDLVSPTRSAHFHPNIQRAKSSSDVKTYIDKDGDTLVWGEFQVDGRSARGGCQTSNDAAAEALNASSKEEALQIIREKIPEKYLFQFHNLNS
B23: AL1 1-158 (other)
chain: MPSHPKRFQINAKNYFLTYPQCSLSKEESLSQLQALNTPINKKFIKICRELHEDGQPHLHVLIQFEGKYCCQNQRFFDLVSPTRSAHFHPNIQRAKSSSDVKTYIDKDGDTLVWGEFQVDGRSARGGCQTSNDAAAEALNASSKEEALQIIREKIPEK

Residue numbers refer to the chain shown, from its start.

For one test, the target named is T2, Wild type TGMV AL1 fused to the Gal4 DNA binding domain (pNSB736) (tomato golden mosaic virus (TGMV)).
Assay: not given
For B1, the “oligomer. (oligomerization activity relative to wild type)” value was 95 relative to wild type (100).
Take B2: the “oligomer. (oligomerization activity relative to wild type)” value is 57 relative to wild type (100).
Turning to B3, the “oligomer. (oligomerization activity relative to wild type)” value is 102 relative to wild type (100).
With B4, the “oligomer. (oligomerization activity relative to wild type)” value was 88 relative to wild type (100).
B5: the “oligomer. (oligomerization activity relative to wild type)” value is 27 relative to wild type (100).
Turning to B6, the “oligomer. (oligomerization activity relative to wild type)” value was 67 relative to wild type (100).
Consider B7, for which the “oligomer. (oligomerization activity relative to wild type)” value is 31 relative to wild type (100).

The target in another test is T2, Wild type TGMV AL1 fused to the Gal4 ….
Assay: not given
This is another data set of the same source.
Turning to B8, the “oligomer. (oligomerization activity relative to wild type)” value is 30 relative to wild type (100).
Same read-out and setting: as for B1, the figure is 95 relative to wild type (100).
On to B2, for which the “oligomer. (oligomerization activity relative to wild type)” value was 57 relative to wild type (100).
As to B4, the “oligomer. (oligomerization activity relative to wild type)” value was 88 relative to wild type (100).
Still for that read-out and setting: to B5 belongs 27 relative to wild type (100).

The target of the next test is T3, Maize Rb (amino acids 214-866) fused to the Gal4 DNA binding domain (Zm214C) (maize).
T3 sequence (P04386 1-147): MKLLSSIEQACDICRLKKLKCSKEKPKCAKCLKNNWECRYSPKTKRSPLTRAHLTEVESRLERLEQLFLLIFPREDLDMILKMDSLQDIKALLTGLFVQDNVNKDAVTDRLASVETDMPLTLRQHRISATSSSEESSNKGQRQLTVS
Assay: not given
In the case of B8, the “Rep/Rb (Rb binding activity relative to wild type)” value was 8 relative to wild type (100).
For B9, the “Rep/Rb (Rb binding activity relative to wild type)” value was 31 relative to wild type (100).
For the molecule B1, the “Rep/Rb (Rb binding activity relative to wild type)” value was 23 relative to wild type (100).
With B2, the “Rep/Rb (Rb binding activity relative to wild type)” value was 69 relative to wild type (100).
Consider B4, for which the “Rep/Rb (Rb binding activity relative to wild type)” value was 45 relative to wild type (100).
The same measure, in the same setting: to B5 belongs 20 relative to wild type (100).

The target of another test is T2, Wild type TGMV AL1 fused to the Gal4 …. Briefly: yeast two-hybrid, beta-galactosidase activity.
On to B10, for which the “AL1 interactions, percent of wild type AL1/AL1 mediated activation” value was 51 % of wild type.

The next test concerns the target T3, Maize Rb (amino acids 214-866) fused to ….
Assay: not given
The source holds these as a separate data set.
Take B2: the “fold reduction of RBR1 binding activity against wild type” value was determined as 2 fold.
Consider B10, for which the “RBR1 binding activity, percent of wild type” value is 16 % of wild type.
In the case of B11, the “RBR1 interactions, percent of wild type levels” value was 42 % of wild type.

A further test deals with T1, Full length GST-AL1 1-352. Description: GST co-purification from insect cells, immunoblot. Background: A western blot detects proteins with antibodies after separation by electrophoresis.
Consider B12, for which the binding result is “binds”.
As to B13, the binding result is on record as “binds”.
Turning to B14, the binding result is listed as “binds”.
Consider B15, for which the binding result is on record as “binds”.
With B16, the binding result is “binds”.
Turning to B17, the binding result is listed as “binds”.
As for B18, the binding result is given as “binds”.
For B19, the binding result was “binds”.
Regarding B20, the binding result is “binds”.
Take B21: the binding result is listed as “binds”.

The next test deals with T1, Full length GST-AL1 1-352. Briefly: GST co-purification on glutathione-sepharose from insect cells, immunoblot.
As for B22, the binding result is given as “no binding”.
B23: the binding result is “no binding”.

The record behind these values is patent publication US20040205843A1 (NORTH CAROLINA STATE UNIVERSITY, published 2004).
